# Where a chain is given by its changes, count along the chain named. Where no end group is shown, it is not given here. The star is where a group is joined. Biotin = O=C1N[C@H]2[C@H](CS[C@H]2CCCCC(=O)*)N1
# T1: biotinylated 15 amino acid tau peptide, residues 383-397 (human)
# T1 peptide: Biotin-KAKTDHGAEIVYKSP
# T2: biotinylated 15 amino acid tau peptide, residues 302-316 (human)
# T2 peptide: Biotin-GGGSVQIVYKPVDLS
# B1: mouse 9F5 antibody (antibody, mouse IgG1, V domains shown)
# VH: EVQLQQSGAELVRPGASVKLSCTASGFNIKDDYMNWVKQRPERGLEWIGWIDPENGDTEYASKFQGKATMTADTSSNTAYLQFSSLTSEDTAVYYCTTSNGWGQGTLVTVST
# VL: DIVMTQAAFSNPVTLGTSASISCRSSKSLLHSNGITYLYWYLQKPGQSPQLLIYQMSNLASGVPDRFSSSGSGTDFTLRISRVEAEDVGVYYCAQNLELPLTFGAGTKLELK
# modifications: here or on the partner: pHrodo label
# B2: mouse 2D11 antibody (antibody, mouse IgG2a, V domains shown)
# VH: B1 VH
# VL: B1 VL
# modifications: here or on the partner: pHrodo label
# B3: mouse 17C12 antibody (antibody, mouse IgG2a, V domains shown)
# VH: B1 VH with E1K, V2I, G26A, E59K, F83L, T112A
# VL: DVVMTQTPLTLSVTIGQPASISCTSSQSLLHSNRKTYLHWLLQRPGQSPKLLIYLVSKLESGVPDRFSGSGSGTDFTLKISRVEAEDLGVYYCLQTTHFPRTFGGGTKLEIK
# modifications: here or on the partner: pHrodo label
# B4: mouse 17C12 antibody (antibody, mouse IgG2a, V domains shown)
# VH: B1 VH with E1K, V2I, G26A, E59K, F83L, T112A
# VL: B3 VL
# notes: also called m17C12
# B5: mouse 2D11 antibody (antibody, mouse IgG2a, V domains shown)
# VH: B1 VH
# VL: B1 VL
# B6: mouse 12C4 antibody (antibody, mouse IgG2a, V domains shown)
# VH: B1 VH with K38R, E59A, T91S, T112A
# VL: B1 VL
# modifications: here or on the partner: pHrodo label
# B7: mouse 10C12 antibody (antibody, mouse IgG2a, V domains shown)
# VH: B1 VH
# VL: B1 VL
# modifications: here or on the partner: pHrodo label
# B8: mouse 10C12 antibody (antibody, mouse IgG2a, V domains shown)
# VH: B1 VH
# VL: B1 VL
# notes: also called m10C12
# B9: hu9F5VHv10/hu9F5VLv9_DIM13 (antibody, V domains shown)
# VH: EVQLVQSGAEVKKPGATVKISCKASGFNIKDDYMNWVKQRPEKGLEWIGWIDPENGDTEYASKFQGRATMTADTSTNTAYMELSSLRSEDTAVYYCTTSNGWGQGTLVTVSS
# VL: DIQMTQSPFSLPVTPGESASISCRSSKSLGHSNGITYLYWYGQKPGQSPQLLIYQGSNRASGVPDRFSSSGSGTDFTLKISRVEAEDVGVYYCAQNLELPLTFGQGTKLEIK
# B10: hu9F5VHv10/hu9F5VLv9_DIM19 (antibody, V domains shown)
# VH: B9 VH
# VL: B9 VL with G30S, G42I, G56I, L97I
# B11: hu9F5VHv10/hu9F5VLv9_DIM20 (antibody, V domains shown)
# VH: B9 VH
# VL: B9 VL with G30S, G42Q, G56I, R59G, L97I
# B12: mouse 14H3 antibody (antibody, mouse IgG2a, V domains shown)
# VH: QVTLKESGPGILQPSQTLSLTCSFSGFSLSTYGMGVGWIRQPSGKGLEWLANIWWDDIKYYNAALKSRLTISKDTSKNQVFLKIASVDTADTATYYCARNVDYWGQGTTLTVSS
# VL: DVVMTQTPLSLPVSLGDQASISCRSSQSLVHSNGNTFLHWYLQKPGQSPKLLIYKVSNRFSGVPDRFSGSGSGTDFTLKISRVEAEDLGVYFCSQSTLVPWTFGGGTKLEIK
# modifications: here or on the partner: pHrodo label
# B13: mouse 14H3 antibody (antibody, mouse IgG2a, V domains shown)
# VH: B12 VH
# VL: B12 VL
# notes: also called m14H3
# Tests used:
# [1] = biological target: pHrodo-labeled tau P301L soluble oligomer, P10636; test: cell-based or functional assay
# pHrodo-labeled tau P301L soluble oligomer, P10636, sequence (P10636 other isoform, or with tags, fused parts or gaps P301L P301L): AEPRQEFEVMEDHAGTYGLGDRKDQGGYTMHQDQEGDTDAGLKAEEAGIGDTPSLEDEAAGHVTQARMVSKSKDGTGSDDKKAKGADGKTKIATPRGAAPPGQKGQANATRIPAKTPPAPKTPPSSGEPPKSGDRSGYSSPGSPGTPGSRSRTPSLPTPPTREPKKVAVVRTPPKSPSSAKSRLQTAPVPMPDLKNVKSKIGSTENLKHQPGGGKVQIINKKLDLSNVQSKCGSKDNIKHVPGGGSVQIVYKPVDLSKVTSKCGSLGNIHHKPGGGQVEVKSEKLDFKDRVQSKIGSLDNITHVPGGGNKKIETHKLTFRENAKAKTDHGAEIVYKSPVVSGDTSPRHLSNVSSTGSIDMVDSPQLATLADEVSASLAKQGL
# [2] = biological target: T3, recombinant human 4R0N tau (human, UniProt P10636 2-758); test: SPR Biacore; antibody captured by anti-mouse antibody; tau as analyte; global 1:1 fit
# T3 construct: also called recombinant 4R0N human tau; P10636-6
# T3 sequence (P10636 other isoform, or with tags, fused parts or gaps limits assumed): as the sequence (P10636 other isoform, or with tags, fused parts or gaps P301L P301L) above
# Experimental: Surface plasmon resonance (SPR) analysis using Biacore was performed by immobilizing an anti-mouse (GE Lifesciences) antibody to a CM3 chip with EDC/NHS. Antibodies were then captured to the anti-mouse surface to equivalent levels. Regeneration was performed with 2 30 s injections of 10 mM Glycine pH 1.7. Various concentrations ranging from 500 to 0.122 nM, diluted in […] dilutions, of recombinant human 4R0N tau were flowed over the sensor for a 150s association phase and 300 s dissociation phase. Data was blank subtracted to both an irrelevant sensor not containing test antibody to account for irrelevant binding to the prepared sensor surface, and to the mobile phase vehicle to account for the dissociation of test antibody from the anti-mouse capture. Data was then analyzed with onboard evaluation software using a global 1:1 fit.
# [3] = biological target: T1, biotinylated 15 amino acid tau peptide, …; test: ELISA, biotinylated peptide on streptavidin plate
# Experimental: (§1) Peptides contained 15 amino acids, with a 5 amino acid overlap. To enable binding to a streptavidin surface, peptides also contained an N-terminal biotin. Peptides were incubated on a streptavidin-coated plate, and the plate was blocked with 1% BSA in 1× PBS. After washing, antibodies were incubated on the plates for 1 hour at room temperature and washed. Plates were then coated with goat anti-mouse horseradish peroxidase (HRP), and washed. Plates were developed with OPD, and absorbance was read at 490 nm. […]
# [4] = biological target: T2, biotinylated 15 amino acid tau peptide, …; test: ELISA, biotinylated peptide on streptavidin plate
# Experimental: as §1
# human tau oligomers [5] = biological target: T4, human tau oligomers (human, UniProt P10636-6 2-383, limits assumed); test: cell-based or functional assay
# T4 sequence (P10636 other isoform, or with tags, fused parts or gaps limits assumed): as the sequence (P10636 other isoform, or with tags, fused parts or gaps P301L P301L) above
# human tau oligomers [6] = biological target: T4, human tau oligomers; test: cell-based or functional assay; remark: listed apart in the source
# [7] = biological target: T3, recombinant human 4R0N tau; test: SPR Biacore T200; antibody captured by anti-human Fc; tau as analyte; global 1:1 fit
# Experimental: Target binding analysis was performed using a Biacore T200 to compare the binding affinity of humanized 9F5 variants to recombinant human 4R0N tau. Anti-Human Fc antibody was immobilized on sensor chip CM3 via amine coupling, and humanized 9F5 variants were captured to equivalent levels. Various concentrations of recombinant 4R0N human tau (ranging from 0.02 nM to 12.5 nM) were passed over the captured ligand at 50 μL/min in running buffer (HBS+0.05% P-20, 1 mg/mL BSA) for 180 seconds association/420 seconds dissociation as a single cycle. Data was blank subtracted to both an irrelevant sensor not containing antibody and 0 nM analyte concentration. Analysis was performed using a global 1:1 fit with Biacore Evaluation software.
Binder,"internalized pHrodo-tau in B103 cells (FACS), antibody at 0.061 µg/mL (% of maximum signal) [1]","internalized pHrodo-tau in B103 cells (FACS), antibody at 0.244 µg/mL (% of maximum signal) [1]","internalized pHrodo-tau in B103 cells (FACS), antibody at 0.98 µg/mL (% of maximum signal) [1]","internalized pHrodo-tau in B103 cells (FACS), antibody at 3.9 µg/mL (% of maximum signal) [1]","internalized pHrodo-tau in B103 cells (FACS), antibody at 15.625 µg/mL (% of maximum signal) [1]","internalized pHrodo-tau in B103 cells (FACS), antibody at 62.5 µg/mL (% of maximum signal) [1]",Kd [2] [nM],koff [2] [s⁻¹],kon [2] [M⁻¹ s⁻¹],binding result [3],binding result [4],also measured
B1,78.1,71.7,71,35.9,24.2,18.1,,,,,,
B2,71.5,79.5,62.7,43,28.6,28.4,,,,,,
B3,79.8,78.6,63.9,36.8,32.4,30.6,,,,,,
B4,,,,,,,0.482,0.00194,4.03e+06,binds,binds,
B5,,,,,,,0.318,0.00221,6.93e+06,binds,binds,"LDH released by primary neurons with tau oligomers, antibody at 0.2 molar equivs (human tau oligomers [5]): 177 % of control; LDH released by primary neurons with tau oligomers, antibody at 0.33 molar equivs (human tau oligomers [5]): 148 % of control; LDH released by primary neurons with tau oligomers, antibody at 1 molar equivs (human tau oligomers [5]): 131 % of control; LDH released by primary neurons with tau oligomers, antibody at 3 molar equivs (human tau oligomers [5]): 109 % of control; LDH released by primary neurons with tau oligomers, antibody at 5 molar equivs (human tau oligomers [5]): 115 % of control; MTT viability of primary neurons with tau oligomers, antibody at 0.2 molar equivs (human tau oligomers [6]): 52.8 % of control; MTT viability of primary neurons with tau oligomers, antibody at 0.33 molar equivs (human tau oligomers [6]): 59.5 % of control; MTT viability of primary neurons with tau oligomers, antibody at 1 molar equivs (human tau oligomers [6]): 50.9 % of control; MTT viability of primary neurons with tau oligomers, antibody at 3 molar equivs (human tau oligomers [6]): 64 % of control; MTT viability of primary neurons with tau oligomers, antibody at 5 molar equivs (human tau oligomers [6]): 92.2 % of control"
B6,78.2,78.6,69.7,42.6,36.6,37.3,,,,,,
B7,86.7,9.09,90.5,55.2,38.9,34.5,,,,,,
B8,,,,,,,0.375,0.00245,6.53e+06,binds,binds,"LDH released by primary neurons with tau oligomers, antibody at 0.2 molar equivs (human tau oligomers [5]): 140 % of control; LDH released by primary neurons with tau oligomers, antibody at 0.33 molar equivs (human tau oligomers [5]): 129 % of control; LDH released by primary neurons with tau oligomers, antibody at 1 molar equivs (human tau oligomers [5]): 109 % of control; LDH released by primary neurons with tau oligomers, antibody at 3 molar equivs (human tau oligomers [5]): 101 % of control; LDH released by primary neurons with tau oligomers, antibody at 5 molar equivs (human tau oligomers [5]): 95.1 % of control; MTT viability of primary neurons with tau oligomers, antibody at 0.2 molar equivs (human tau oligomers [6]): 47.1 % of control; MTT viability of primary neurons with tau oligomers, antibody at 0.33 molar equivs (human tau oligomers [6]): 51.3 % of control; MTT viability of primary neurons with tau oligomers, antibody at 1 molar equivs (human tau oligomers [6]): 56.4 % of control; MTT viability of primary neurons with tau oligomers, antibody at 3 molar equivs (human tau oligomers [6]): 69.2 % of control; MTT viability of primary neurons with tau oligomers, antibody at 5 molar equivs (human tau oligomers [6]): 86.8 % of control"
B9,,,,,,,,,,,,Kd [7]: 0.508 nM; koff [7]: 0.00116 s⁻¹; kon [7]: 2.28e+06 M⁻¹ s⁻¹
B10,,,,,,,,,,,,Kd [7]: 1.97 nM; koff [7]: 0.00688 s⁻¹; kon [7]: 3.49e+06 M⁻¹ s⁻¹
B11,,,,,,,,,,,,Kd [7]: 9.62 nM; koff [7]: 0.0334 s⁻¹; kon [7]: 3.47e+06 M⁻¹ s⁻¹
B12,79.7,66,67.8,63.1,53.2,48.4,,,,,,
B13,,,,,,,0.202,0.00153,7.6e+06,binds,binds,
